Source: patent US7556927

B1: IK17 human monoclonal IgG Fab (Fab, V domains shown)
VH: EVQLLESGGDLVQPGGSLRLSCIVSGSTFSNYAMSWVRQAPGKGLEWVSAISGTGRSTNYADSVKGRFTISRDNSKDTLYLEMNSLRAEDTATYYCTRTPRIDFWNIANRHFDYWGQGTRVTVSS
VL: VLTQSPATLSLSPGERVTLSCRASQSVSSSLAWYQQKPGQAPRLLIYDASNRATGVPARFSGSGSGTDFTLTISGLEPEDFAVYYCQQRYNWPPKYTFGQGTKLEIRR
B2: scFv IK17 (scFv, part only; not given: linker and His tag, not shown: small tags and cut ends)
scFv, part: MAEVQLLESGGDLVQPGGSLRLSCIVSGSTFSNYAMSWVRQAPGKGLEWVSAISGTGRSTNYADSVKGRFTISRDNSKDTLYLEMNSLRAEDTATYYCTRTPRIDFWNIANRHFDYWGQGTRVTVSSASTKGPSVFPLAPSSKSTSGGTAALGCLVRDYFPEPVTVSWNSGALTSGVHTFPAVLQSSGLYSLSSVVTVPSSVLTQSPATLSLSPGERVTLSCRASQSVSSSLAWYQQKPGQAPRLLIYDASNRATGVPARFSGSGSGTDFTLTISGLEPEDFAVYYCQQRYNWPPKYTFGQGTKLEIRRTVAAPSVFIFPPSDEQLKSGTASVVCLLNNFYPREAKVQWKVG

Tests used:
[1] = molecular target: copper-induced oxidized low density lipoprotein (Cu-OxLDL) (UniProt P04114); assay: cell-based or functional assay
[2] = molecular target: copper-induced oxidized low density lipoprotein (Cu-OxLDL) (UniProt P04114); assay: competition: ^125I-Cu-OxLDL binding to mouse peritoneal macrophages at 4 C, IK17 as competitor
[3] = molecular target: malondialdehyde low density lipoprotein (MDA-LDL) (UniProt P04114); assay: direct binding and competition assays with affinity purified Fab; method of the affinity value not stated
[4] = molecular target: malondialdehyde low density lipoprotein (MDA-LDL) (UniProt P04114); assay: chemiluminescent ELISA, against Fab IK17 as reference
[5] = molecular target: copper-induced oxidized low density lipoprotein (Cu-OxLDL) (UniProt P04114); assay: as above

Binder	degradation of ^125I-Cu-OxLDL by macrophages (TCA-soluble ^125I in medium), % inhibition [1]	% inhibition of binding of ^125I-Cu-OxLDL to macrophages [2]	Kd [3]	fold greater binding activity than parent Fab [4]	fold greater binding activity than parent Fab [5]
B1	50 to 65%	70 to 85%	37 nM		
B2				50 to 500 fold	50 to 500 fold
